The record followed here is publication PMC8630228.

The experiment has as its target precursor δ-latroinsectotoxin (full-length precursor δ-LIT) (Latrodectus tredecimguttatus). As to the kind of experiment: cryo-EM, reference-free 2D classification of particles; full-length δ-LIT at 0.4 mg/ml on holey carbon grids; particles sorted into monomer, dimer, trimer and tetramer classes.

Several values for one entry are separate records, joined by “and”; a condition that tells them apart may be missing. Equal values may be shown once.

“precursor δ-latroinsectotoxin (full-length precursor δ-LIT) (natural protein)”: the percent of particles that are dimers worked out at 50%; the percent of particles that are tetramers came to 2.5%; the percent of particles that are trimers is 2.5%; the stoichiometry N is 2 and 3 and 4.

One may read the stoichiometry N as a count of units in the complex or per binding partner.
